B1: library; numbered along this chain (parent)
chain: MAAAAAAAAEQQSSNGPVKKSMREKAVERRSVNKEHNSNFKAGYIPIDEDRLHKTGLRGRKGNLAICVIILLFILAVINLIITLVIWAVIRIGPNGCDSMEFHESGLLRFKQVSDMGVIHPLYKSTVGGRRNENLVITGNNQPIVFQQGTTKLSVENNKTSITSDIGMQFFDPRTQNILFSTDYETHEFHLPSGVKSLNVQKASTERITSNATSDLNIKVDGRAIVRGNEGVFIMGKTIEFHMGGNMELKAENSIILNGSVMVSTTRLPSSSSGDQLGSGDWVRYKLCMCADGTLFKVQVTSQNMGCQISDNPCGNTH

Variants of: B1
Test: SGCB cell-surface expression functional score (HA stain, bin4 vs bin1, normalised to synonymous) (log10 ratio); higher = more cell-surface SGCB (functional)
In short: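 Using lentivirus at MOI <0.1, HA-tagged, YFP-fused human beta-sarcoglycan codon-saturation libraries were put into HEK293 cells with stable alpha-, gamma- and delta-sarcoglycan expression, in duplicate transductions. YFP-positive cells were collected by sorting 72 hours later, grown 5–7 days, stained on ice with Alexa Fluor 647 anti-HA, fixed, sorted into four 5% intensity bins and amplicon-sequenced. The functional score takes the median, across codons and transductions, of the log ratio of highest-bin to lowest-bin variant frequency. Within each section, synonymous variants were scaled to mean 0, SD 0.5.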

Variant | SGCB cell-surface expression functional score (log10)
MAAAAAVAAEQQSSNGPVKKSMREKAVERRSVNKEHNSNFKAGYIPIDEDRLHKTGLRGRKGNLAICVIILLFILAVINLIITLVIWAVIRIGPNGCDSMEFHESGLLRFKQVSDMGVIHPLYKSTVGGRRNENLVITGNNQPIVFQQGTTKLSVENNKTSITSDIGMQFFDPRTQNILFSTDYETHEFHLPSGVKSLNVQKASTERITSNATSDLNIKVDGRAIVRGNEGVFIMGKTIEFHMGGNMELKAENSIILNGSVMVSTTRLPSSSSGDQLGSGDWVRYKLCMCADGTLFKVQVTSQNMGCQISDNPCGNTH [A7V] | 0.16
MAAAAAAAAEQQSSNGPVKKSMREKAVERRSVNKEHNSNFKAGYIPIDEDRLHKTGLRGRKGNLAICVIILLFILAVINLIITLVIWAVIRIGPNGVDSMEFHESGLLRFKQVSDMGVIHPLYKSTVGGRRNENLVITGNNQPIVFQQGTTKLSVENNKTSITSDIGMQFFDPRTQNILFSTDYETHEFHLPSGVKSLNVQKASTERITSNATSDLNIKVDGRAIVRGNEGVFIMGKTIEFHMGGNMELKAENSIILNGSVMVSTTRLPSSSSGDQLGSGDWVRYKLCMCADGTLFKVQVTSQNMGCQISDNPCGNTH [C97V] | 0.16
MAAAAAAAAEQQSSNGPVKKSMREKAVERRSVNKEHNSNFKAGYIPIDEDRLHKTGLRGRKGNLAICVIILLFILAVINLIITLVIWAVIRIGPNGCDSMEFHESGLLRFKQVSDMGVIRPLYKSTVGGRRNENLVITGNNQPIVFQQGTTKLSVENNKTSITSDIGMQFFDPRTQNILFSTDYETHEFHLPSGVKSLNVQKASTERITSNATSDLNIKVDGRAIVRGNEGVFIMGKTIEFHMGGNMELKAENSIILNGSVMVSTTRLPSSSSGDQLGSGDWVRYKLCMCADGTLFKVQVTSQNMGCQISDNPCGNTH [H120R] | 0.35
MAAAAAAAAEQQSSNGPVKKSMREKAVERRSVNKEHNSNFKAGYIPIDEDRLHKTGLRGRKGNLAICVIILLFILAVINLIITLVIWAVIRIGPNGCDSMEFHESGLLRFKFVSDMGVIHPLYKSTVGGRRNENLVITGNNQPIVFQQGTTKLSVENNKTSITSDIGMQFFDPRTQNILFSTDYETHEFHLPSGVKSLNVQKASTERITSNATSDLNIKVDGRAIVRGNEGVFIMGKTIEFHMGGNMELKAENSIILNGSVMVSTTRLPSSSSGDQLGSGDWVRYKLCMCADGTLFKVQVTSQNMGCQISDNPCGNTH [Q112F] | -0.97
MAAAAAAAAEQQSSNGPVKKSMREKAVERRFVNKEHNSNFKAGYIPIDEDRLHKTGLRGRKGNLAICVIILLFILAVINLIITLVIWAVIRIGPNGCDSMEFHESGLLRFKQVSDMGVIHPLYKSTVGGRRNENLVITGNNQPIVFQQGTTKLSVENNKTSITSDIGMQFFDPRTQNILFSTDYETHEFHLPSGVKSLNVQKASTERITSNATSDLNIKVDGRAIVRGNEGVFIMGKTIEFHMGGNMELKAENSIILNGSVMVSTTRLPSSSSGDQLGSGDWVRYKLCMCADGTLFKVQVTSQNMGCQISDNPCGNTH [S31F] | -0.24
MAAAAAAAAEQQSSNGPVKKSMREKAVERRSVNKEHNSNFKAGYIPIDEDRLHKTGLRGRKGNLAICVIILLFILAVINLIITLVIWAVIRIGPNGCDSMEFHESGLLRFKQVSDMGVISPLYKSTVGGRRNENLVITGNNQPIVFQQGTTKLSVENNKTSITSDIGMQFFDPRTQNILFSTDYETHEFHLPSGVKSLNVQKASTERITSNATSDLNIKVDGRAIVRGNEGVFIMGKTIEFHMGGNMELKAENSIILNGSVMVSTTRLPSSSSGDQLGSGDWVRYKLCMCADGTLFKVQVTSQNMGCQISDNPCGNTH [H120S] | 0.28
MAAAAAAAAEQQSSNGPVKKSMREKAVERRSVNKEHNSNFKAGYIPIDEDRLHKTGLRGRKGNLAICVIILLFILAVINLIITLVIWAVIRIGPNGCDSMEFHESGLLRFKQVSDMGVIHPLYKSTVGGRRNENLVITGNNQPIVFQQGTTKLSVENNKTSITSDIGMQFFDPRTQNILFSTDYETHEFHLPSGVKSLNVQKASTERITSNATSDLNIKVDGRAIVRGNEGVFIMGKTIEFHMGGNMELKAENSILLNGSVMVSTTRLPSSSSGDQLGSGDWVRYKLCMCADGTLFKVQVTSQNMGCQISDNPCGNTH [I256L] | 0.37
MAAAAAAAAEQQSSNGPVKKSMREKAVERRSVNKEHNSNFKAGYIPIDEDRLHKTGLRGRKGNLAICVIILLFILAVINLIITLVIWAVIRIGPNGCDSMEFHESGLLRFKQVSDMGVIHPLYKSTVGGRRNENLVITGNNQPIVFQQGTTKLSVENNKTSITSDIGMQFFDPRTQNILFSTDYETHEFHLPSGVKSLNVQKASTERITSNATSDLNIKVDGRAIVRGNEGVFIMGKTIEFHMGGNMELKAENSIILNGSVMVSTTRLPSSSSGDQLGSGDWVRYKLCMCADGTLFPVQVTSQNMGCQISDNPCGNTH [K297P] | 0.02
MAAAAAAAAEQQSSNGPVKKSMREKAVERRSVNKEHNSNFKAGYIPIDEDRLHKTGLRGRKGNLAICVIILLFILAVINLIITLVIWAVIRIGPNGCDSMEFHESGLLRFKQVSDMGVIHPLYKSTVGGRRNENLVITGNNQPIVFQQGTTKLSVENNKTSITSDIGMQFFDPRTQNILFSTDYETHEFHLPSGVKSLNVQKASTERITSNATSDLNIKVDGRAIVRGNEGVFIMGKTIEFHMGGNMELFAENSIILNGSVMVSTTRLPSSSSGDQLGSGDWVRYKLCMCADGTLFKVQVTSQNMGCQISDNPCGNTH [K250F] | 1.23
MAAAAAAAAEWQSSNGPVKKSMREKAVERRSVNKEHNSNFKAGYIPIDEDRLHKTGLRGRKGNLAICVIILLFILAVINLIITLVIWAVIRIGPNGCDSMEFHESGLLRFKQVSDMGVIHPLYKSTVGGRRNENLVITGNNQPIVFQQGTTKLSVENNKTSITSDIGMQFFDPRTQNILFSTDYETHEFHLPSGVKSLNVQKASTERITSNATSDLNIKVDGRAIVRGNEGVFIMGKTIEFHMGGNMELKAENSIILNGSVMVSTTRLPSSSSGDQLGSGDWVRYKLCMCADGTLFKVQVTSQNMGCQISDNPCGNTH [Q11W] | 0.61
MAAAAAAAAEQQSSNGPVKKSMREKAVERRSVNKEHNSNFKAGYIPIDEDRLHKTGLRGRKGNLAICVIILLFILAVINLIITLVIWAVIRIGPNGCDSMEFHESGLLRFKQVSDMGVIHPLYKSTVGGRRNENLVITGNNQPIVFQQGTTKLSVENNKTSITSDIGMQFFDPRTQNILFSTDYETHEFHLPSGVKSLNVQKASTERITSNATSDLNIKVDGRAIVRGNEGVFIMGKNIEFHMGGNMELKAENSIILNGSVMVSTTRLPSSSSGDQLGSGDWVRYKLCMCADGTLFKVQVTSQNMGCQISDNPCGNTH [T238N] | 0.67
MAAAAAAAAEQQSSNGPVKKSMREKAVERRSVNKEHNSNFKAGYIPIDEDRLHKTGLRGRKGNLAICVIILLFILAVINLIITLVIWAVIRIGPNGCDSMEFHESGLLRFKQVSDMGVIHPLYKSTVGGRRNENLVITGNNQPIVFQQGTTKLSVENNKTSITSDIGMQFFDPRTQNILFSTDYETHEFHLPSGVKSLNVQKASTERITSNATSDLNIKVDGRAIVRGNEGVFIMGKTIEFHMGGNMELKAENSIIENGSVMVSTTRLPSSSSGDQLGSGDWVRYKLCMCADGTLFKVQVTSQNMGCQISDNPCGNTH [L257E] | -0.43
MAAAAAAAAEQQSSNGPVKKSMREKAVERRSVNKEHNSNFKAGYIPIDEDRLHKTGLRGRKGNLAICVIILLFILAVINLIITLVIWAVIRIGPNGCDSMEFHESGLLRFKQVSDMGVIHPLYKSTVGGRRNENLVITGNNQPIVFQQGTTKISVENNKTSITSDIGMQFFDPRTQNILFSTDYETHEFHLPSGVKSLNVQKASTERITSNATSDLNIKVDGRAIVRGNEGVFIMGKTIEFHMGGNMELKAENSIILNGSVMVSTTRLPSSSSGDQLGSGDWVRYKLCMCADGTLFKVQVTSQNMGCQISDNPCGNTH [L153I] | -0.17
MAAAAAAAAEQQSSNGPVKKSMREKAVERRSVNKEHNSNFKAGYIPIDEDRLHKTGLRGRKGNLAICVIILLFILAVINLIITLVIWAVIRIGPNGCDSMEFHESGLLLFKQVSDMGVIHPLYKSTVGGRRNENLVITGNNQPIVFQQGTTKLSVENNKTSITSDIGMQFFDPRTQNILFSTDYETHEFHLPSGVKSLNVQKASTERITSNATSDLNIKVDGRAIVRGNEGVFIMGKTIEFHMGGNMELKAENSIILNGSVMVSTTRLPSSSSGDQLGSGDWVRYKLCMCADGTLFKVQVTSQNMGCQISDNPCGNTH [R109L] | -0.1
MAAAAAAAAEQQSSNGPVKKSMREKAVERRSVNKEHNSNFKAGYIPFDEDRLHKTGLRGRKGNLAICVIILLFILAVINLIITLVIWAVIRIGPNGCDSMEFHESGLLRFKQVSDMGVIHPLYKSTVGGRRNENLVITGNNQPIVFQQGTTKLSVENNKTSITSDIGMQFFDPRTQNILFSTDYETHEFHLPSGVKSLNVQKASTERITSNATSDLNIKVDGRAIVRGNEGVFIMGKTIEFHMGGNMELKAENSIILNGSVMVSTTRLPSSSSGDQLGSGDWVRYKLCMCADGTLFKVQVTSQNMGCQISDNPCGNTH [I47F] | -0.49
MAAAAAAAAEQQSSNGPVKKSMREKAVERRSVNKEHNSNFKAGYIPIDEDRLHKTGLRGRKGNLAICVIILLFILAVINLIITLVIWAVIRIGPNGCDSMEFHESGLLRFKQVSDMGVIHPLYKSTVGGRRNENLVITGNNQPIVFQQGTTKLSVENNKTSITSDIGMQFFDPRTQNILFSTDYETHEFHLPSGVKSLNVQKASTERITSNATSDLNIKVDGRAIVRGNEGVFIMGKTIEFHMGGNMELKAENSIILNGSVMVSTTRLPSSSSGDQLGSGDWVRYKLCMCADGTLFKVQVTSQNMGCQNSDNPCGNTH [I309N] | 0.02
MAAAAAAAAEQQSSNGPVKKSMREKAVERRSVNKEHNSNFKAGYIPIDEDRLHKTGLRGRKGNLAICVIILLFILAVINLIITLVIWAVIRIGPNGCDSMEFHESGLLRFKQVSDMGVIHPLYKSTVGGRRNENLVITGNNQPIVFQQGTTKLSVENNKTSITSDIGMQFFDPRTQNILFSTDYETHEFHLPSGVKSLNVQKASTERITSNATSDLNIKVDGRAIVRGNEGVFIMGKTIEFHMGGNMELKAENSIILNGSVMNSTTRLPSSSSGDQLGSGDWVRYKLCMCADGTLFKVQVTSQNMGCQISDNPCGNTH [V263N] | 0.66
MAAAAAAAAEQQSSNGPVKKSMREKAVLRRSVNKEHNSNFKAGYIPIDEDRLHKTGLRGRKGNLAICVIILLFILAVINLIITLVIWAVIRIGPNGCDSMEFHESGLLRFKQVSDMGVIHPLYKSTVGGRRNENLVITGNNQPIVFQQGTTKLSVENNKTSITSDIGMQFFDPRTQNILFSTDYETHEFHLPSGVKSLNVQKASTERITSNATSDLNIKVDGRAIVRGNEGVFIMGKTIEFHMGGNMELKAENSIILNGSVMVSTTRLPSSSSGDQLGSGDWVRYKLCMCADGTLFKVQVTSQNMGCQISDNPCGNTH [E28L] | 0.05
MAAAAAAAAEQQSSNGPVKKSMREKAVERRSVNKEHNSNFKAGYIPIDEDRLHKTGLRGRKGNLAICVIILLFILAVINLIITLVIWAVIRIGPNGCDSMEFHESGLLRFKQVSDMGVIHPLYKSTVGGRRNENLVITGNNQPIVFQQGTTKLSVENNKTSITSDIGMQFFDPRTQNILFSTDYETHEFHLPSGVKSLNVQKASTERITSNATSDLNIKVDGRAIVRGNEGVFIMGKTIEFHMGGNMELKAENSIILNGSVMVSTTRLPSSSSGDQLGSGDWVRYKLCMCAVGTLFKVQVTSQNMGCQISDNPCGNTH [D292V] | -0.08

— the supplement of paper PMC10266784
